In doi:10.1101/2021.08.28.458007v1 one finds Km and kcat data, which are given here for four substances.

The data set relates to O=C1O[C@H]([C@@H](O)CO)C(=O)C1=O. Briefly: purified protein. The conditions noted are these: co-substrate GSH, 50 mM phosphate pH 6.8, 0.2 mM EDTA.

As to HsCLIC1 (Homo sapiens), the Km is given as 2753 (±939.5) μM; the catalytic constant (kcat) (in general, the number of substrate molecules converted per active site and unit of time at saturation) is 0.00542 s⁻¹.
Taken in the same sequence, the figures for HsCLIC1 (Homo sapiens; K13A) were 4121 (±858.6) μM and 0.0002 s⁻¹.
For the substance HsCLIC3 (Homo sapiens), the Km is recorded as 310.2 (±140.2) μM and the kcat came to 0.00197 s⁻¹.
For the substance HsCLIC4 (Homo sapiens), the Km is reported as 495.1 (±316.6) μM and the kcat was 0.00222 s⁻¹.
